The target of assay [1] is T1, recombinant human OX40-his protein (human, UniProt P43489 29-214).
T1 construct: Secretion driven by the native signal peptide of human TNFRSF4; also called recombinant histidine tagged human OX40 receptor extracellular domain; recombinant monovalent human OX40 receptor extracellular domain
T1 sequence: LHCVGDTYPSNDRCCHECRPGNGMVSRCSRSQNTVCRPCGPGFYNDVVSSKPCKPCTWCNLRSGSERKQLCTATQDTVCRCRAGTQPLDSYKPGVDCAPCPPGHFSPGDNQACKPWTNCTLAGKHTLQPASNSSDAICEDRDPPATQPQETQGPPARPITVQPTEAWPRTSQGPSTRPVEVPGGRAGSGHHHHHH
As to the kind of experiment: SPR, antibody captured on protein A, OX40-his as analyte, duplicates; lower of the two duplicate measurements. The method, then:
(§1) Kinetic binding affinity constants (KD) were measured on protein-A captured antibody using recombinant histidine tagged human OX40 receptor extracellular domain as described in Example 1 as analyte. Measurements were conducted on a BIAcore 2000 (GE Healthcare—BIAcore, Uppsala, Sweden) at room temperature, and analyzed with the BiaEvaluation software (BIAcore; v4.1).
(§2) 10 μl of this diluted stock were subsequently injected on the flow-path 2 of the protein-A CMS chip (30 μl/min) to reach 200-250 RUs. Following this capture step, the recombinant histidine tagged human OX40 receptor extracellular domain was injected at different concentrations (50 nM to 0.4 μM) on the flow-path 1 and 2 (flow-path 1 being used as reference) at a 30 μl/min flow rate. After each binding event, surface was regenerated with glycine buffer pH 1.5 injected for 1 min (10 μl/min)
Measurements were performed in duplicates with the captured chimeric 1D4 anti-human OX40 antibody immobilized onto the protein-A sensor chip and the recombinant histidine tagged human OX40 receptor extracellular domain as analyte.

The target in assay [2] is T2, recombinant human OX40-Fc protein (human, UniProt P43489 29-214).
T2 construct: also called human TNFRSF4 extracellular domain-Fc fusion protein; HHHH; not shown: Fc region of a human IgG1, EU positions 223-451 as printed
As to the kind of experiment: blocking ELISA on coated human OX40-Fc; blocked ligand: biotinylated recombinant human OX40L, streptavidin-HRP detection. The method, then:
In order to determine if the generated anti-OX40 antibodies can block the binding of OX40L to the OX40 receptor, a blocking ELISA was developed. Ninety-six well-microtiter plates (Costar, USA; distributor VWR AG, Nyon, Switzerland) were coated with 100 μl of recombinant human OX40-Fc (see Example 1) at 2 μg/ml in PBS. Plates were incubated overnight at 4° C. and were then blocked with PBS 2% BSA at RT for one hour. The blocking solution was removed and the hybridoma supernatants or purified antibodies were added to the plate. Five minutes later, 50 μl of biotinylated-recombinant human OX40L at 0.04 mg/ml was added to each well. Plates were incubated at RT for 60 minutes, then washed nine times with PBS 0.01% Tween-20 and HRP-streptavidin (Sigma-Aldrich Chemie GmbH, Buchs, Switzerland) was added at a dilution of 1:2000. Plates were incubated for 30 minutes at RT, washed 9 times with PBS 0.01% Tween-20 and the TMB substrate (Bio-rad Laboratories AG, Reinach, Switzerland) was added to the plates and the reaction stopped after 6 minutes by adding H₂SO₄. Absorbance was then read at 450 nm by a microplate reader (Biotek, USA; distributor: WITTEC AG, Littau, Switzerland).
(In general: ELISA stands for enzyme-linked immunosorbent assay.)

Assay [3] has as its target T1, recombinant human OX40-his protein. As to the kind of experiment: SPR, antibody captured on protein A, OX40-his as analyte. How it is done: as §1
A CMS research grade sensor chip (GE Healthcare Europe GmbH, Glattbrugg, Switzerland; BR-1000-14) was activated by injecting 35 μl of a 1:1 N-hydroxysulfosuccinimide (NHS)/1-Ethyl-3-[3-dimethylaminopropyl]carbodiimide Hydrochloride (EDC) solution (v/v; 5 μl/min flow-rate; on flow paths 1 and 2). Protein-A (ref. P7837; Sigma-Aldrich Chemie GmbH, Buchs, Switzerland) was diluted to a final concentration of 50 μg/ml in acetate buffer pH 4.5 (GE, BR-1003-50; one pH unit below pI) and subsequently immobilized on the previously activated CMS sensor chip by injecting 35 μl on both flow path 1 and 2 (5 μl/min); this corresponded to approximately 1500 response units (RUs). The protein-A-CMS sensor chip was then deactivated by injecting 35 μl of ethanolamine solution (5 μl/min). Finally, two injections of 10 μl of glycine solution (GE, ref BR-1003-54; 10 mM; pH 1.5) were performed to release non-crosslinked protein-A molecules.
as §2
(In SPR one partner is held on a chip, and binding of the other changes the refractive index at the surface.)

B1: chimeric 1D4 antibody (antibody, human IgG1, kappa, V domains shown)
VH: QVTLKESGPGILQPSQTLSLTCSFSGFSLSTSGMGVGWIRQPSGKGLEWLAHIWWDDDKYYNTALKSGLTISKDTSKNQVFLKIASVDTTDTATYYCARIDWDGFAYWGQGTLVTVSS
VL: QIVLTQSPAILSASPGEKVTMTCRASSSVSYMHWYQQKPGSSPKPWIYATSNLASGVPARFSGSGSGTSYSLTINRVEAEDAATYYCQQWSSNPWTFGGGTKLEIKR
notes: Biotinylated for the staining of cynomolgus cells; also called 1D4 chimera; 1D4 chimeric antibody
As for B1, in assay [1], the Kd – broadly, the free concentration of one partner at which half of the binding sites on the other are occupied at equilibrium, for simple one-to-one binding – lay within 91 to 116 nM. In addition, the “IC50 (read off the curve)” value in assay [2] is around 0.3 µg/mL. For the same molecule, in assay [3], the Kd turned out to be 91 nM; the off-rate constant (koff) (commonly a measure of how fast the partners let go of each other) worked out at 0.00308 s⁻¹; the kon (in general, the second-order rate constant of association) was determined as 34000 M⁻¹ s⁻¹.

These data come from patent US20130183315A1 (GLENMARK PHARMACEUTICALS S A, published 2013).
